Results as given in the Human Domainome abundance scans (Beltran et al. 2025).
± gives the uncertainty stated by the source.

B1: POU domain, class 6, transcription factor 2, residues 609 to 663; numbered along this chain, P78424 (parent)
chain: KRRTSFTPQALEILNAHFEKNTHPSGQEMTEIAEKLNYDREVVRVWFCNKRQALK
B2: Activity-dependent neuroprotector homeobox protein, residues 770 to 810; numbered along this chain, Q9H2P0 (parent)
chain: FLTKYFNKQPYPTRREIEKLAASLWLWKSDIASHFSNKRKK

Variants of: B1
Test: abundance fitness (aPCA) (normalised: wild type 0, dead -1); higher = more abundant; growth selection in yeast, the domain comes from the species named
Conditions: Homo sapiens

Row | Variant | abundance fitness
1 | E28R | -0.175 ± 0.091
2 | E28N | -0.313 ± 0.13
3 | E28K | -0.072 ± 0.37
4 | K50F | -1.15 ± 0.31
5 | K50R | 0.022 ± 0.071
6 | C48M | 0.18 ± 0.39
7 | C48E | 0.259 ± 0.22
8 | C48T | -0.197 ± 0.44
9 | I13A | -0.01 ± 0.12
10 | I13W | -0.219 ± 0.14
11 | I13E | -0.251 ± 0.21
12 | F47Y | -0.162 ± 0.1
13 | F47L | -0.782 ± 0.069
14 | D39K | -0.257 ± 0.11
15 | A33H | -0.881 ± 0.34
16 | A33G | -0.248 ± 0.12
17 | Q9P | -0.028 ± 0.15
18 | Q9Y | -0.088 ± 0.3
19 | Q9W | -0.184 ± 0.16
20 | Q9N | -0.141 ± 0.18
21 | Q52S | -0.175 ± 0.08
22 | R51K | -0.026 ± 0.14
23 | R51F | -0.331 ± 0.14
24 | R51Q | -0.031 ± 0.16
25 | R51I | -0.226 ± 0.17

Row | Variant | abundance fitness
26 | R51D | -0.457 ± 0.21
27 | L14H | -0.788 ± 0.31
28 | L14Q | -0.819 ± 0.11
29 | L14K | -0.874 ± 0.34
30 | L14E | -1.07 ± 0.19
31 | F6I | 0.092 ± 0.1
32 | S25Q | -0.313 ± 0.25
33 | S25L | -0.213 ± 0.098
34 | S25C | -0.232 ± 0.16
35 | S25Y | -0.872 ± 0.24
36 | S25H | 0.073 ± 0.26
37 | S25A | -0.185 ± 0.12
38 | L11D | -0.622 ± 0.25
39 | R40C | -0.064 ± 0.1
40 | T7D | -0.402 ± 0.22
41 | K20F | -0.421 ± 0.14
42 | K20V | -0.131 ± 0.074
43 | K20D | -0.291 ± 0.13
44 | E19I | 0.032 ± 0.1
45 | E19P | -1.05 ± 0.24
46 | R3G | -0.035 ± 0.059
47 | R3W | -0.265 ± 0.088
48 | P8K | -0.138 ± 0.2
49 | P8H | -0.177 ± 0.33
50 | P8V | 0.004 ± 0.11

Row | Variant | abundance fitness
51 | P8R | -0.148 ± 0.1
52 | R2S | 0.106 ± 0.089
53 | R2A | 0.038 ± 0.085
54 | R2N | 0.095 ± 0.1
55 | R2T | 0.041 ± 0.089
56 | R2M | 0.064 ± 0.11
57 | R2Q | 0.026 ± 0.17
58 | H17L | -0.008 ± 0.058
59 | H17K | 0.04 ± 0.1
60 | H17C | -0.063 ± 0.072
61 | H17F | -0.056 ± 0.098
62 | H17V | -0.031 ± 0.054
63 | L36R | -0.967 ± 0.19
64 | N49V | -0.138 ± 0.1
65 | N49M | -0.177 ± 0.11
66 | N49E | 0.177 ± 0.16
67 | R44A | -0.017 ± 0.082
68 | R44L | -0.21 ± 0.067
69 | R44H | -0.199 ± 0.14
70 | R44I | -0.152 ± 0.13
71 | S5V | 0.015 ± 0.074
72 | S5W | -0.11 ± 0.082
73 | E41C | -0.119 ± 0.12
74 | E41K | 0.021 ± 0.13
75 | E41W | -0.319 ± 0.078

Row | Variant | abundance fitness
76 | E41T | -0.082 ± 0.093
77 | E41F | -0.743 ± 0.14
78 | E41Q | -0.216 ± 0.099
79 | Q27I | 0.091 ± 0.16
80 | Q27F | -0.737 ± 0.41
81 | Q27N | -0.106 ± 0.18
82 | G26M | -0.078 ± 0.15
83 | G26W | 0.119 ± 0.1
84 | P24C | -0.462 ± 0.1
85 | P24R | -0.909 ± 0.068
86 | V42K | 0.066 ± 0.11
87 | V42S | 0.029 ± 0.074
88 | N21S | -0.17 ± 0.08
89 | N21V | -0.335 ± 0.068
90 | N21E | -0.016 ± 0.11
91 | N21I | -0.351 ± 0.18
92 | N21Y | -0.36 ± 0.13
93 | H23W | -0.124 ± 0.11
94 | H23Q | -0.029 ± 0.13
95 | H23E | 0.072 ± 0.11
96 | H23G | -0.217 ± 0.063
97 | H23P | -1.1 ± 0.41
98 | E34V | -0.194 ± 0.15
99 | E34L | -0.024 ± 0.15
100 | T30A | -0.046 ± 0.28

Row | Variant | abundance fitness
101 | T30L | -0.216 ± 0.19
102 | T30R | -0.119 ± 0.11
103 | F18R | -0.856 ± 0.074
104 | N15W | -0.361 ± 0.11
105 | N15Q | -0.281 ± 0.11
106 | N15H | -0.085 ± 0.16
107 | N15Y | -0.615 ± 0.24
108 | N15R | -0.217 ± 0.084
109 | K35V | -0.112 ± 0.1
110 | N37W | -0.444 ± 0.1
111 | N37Q | -0.06 ± 0.12
112 | V43D | -0.764 ± 0.31
113 | V43W | -0.979 ± 0.14
114 | V43E | -0.762 ± 0.15
115 | A16C | -0.164 ± 0.087
116 | A16K | -0.044 ± 0.1
117 | W46Y | 0.032 ± 0.23
118 | W46Q | -0.827 ± 0.43
119 | W46C | -0.997 ± 0.28
120 | T22V | 0.105 ± 0.11
121 | T22K | -0.089 ± 0.11
122 | T22D | -0.037 ± 0.12
123 | A53R | -0.194 ± 0.096

Variants of: B2
Test: as above
Conditions: Homo sapiens

Row | Variant | abundance fitness
124 | T3A | -0.303 ± 0.055
125 | T3G | -0.132 ± 0.053
126 | T3K | 0.262 ± 0.056
127 | T3V | -0.544 ± 0.066
128 | T3D | -0.291 ± 0.069
129 | T3C | -0.536 ± 0.081
130 | T3H | -0.325 ± 0.058
131 | T3L | -0.759 ± 0.084
132 | T3Q | -0.164 ± 0.089
133 | T3F | -0.613 ± 0.14
134 | T3E | -0.059 ± 0.13
135 | T3P | -0.935 ± 0.13
136 | T3S | 0.001 ± 0.054
137 | T3N | 0.167 ± 0.092
138 | T3M | -0.395 ± 0.12
139 | T3I | -0.475 ± 0.1
140 | F1L | -1.24 ± 0.22
141 | F1P | -0.375 ± 0.29
142 | F1R | -1.12 ± 0.33
143 | F1C | -0.854 ± 0.15
144 | F1S | -0.09 ± 0.25
145 | F1D | -0.805 ± 0.27

Row | Variant | abundance fitness
146 | F1T | -0.158 ± 0.2
147 | F1N | -0.142 ± 0.32
148 | F1K | -0.36 ± 0.33
149 | F1M | -0.176 ± 0.15
150 | F1G | -0.574 ± 0.2
151 | L2E | -1.06 ± 0.26
152 | L2G | -0.812 ± 0.066
153 | L2Y | -0.248 ± 0.12
154 | L2H | -0.738 ± 0.17
155 | L2T | -0.661 ± 0.091
156 | L2W | 0.044 ± 0.048
157 | L2P | -0.532 ± 0.24
158 | L2N | -0.555 ± 0.27
159 | L2F | 0.098 ± 0.071
160 | L2D | -0.822 ± 0.12
161 | L2K | -0.622 ± 0.3
162 | L2R | -0.789 ± 0.074
163 | L2A | -0.753 ± 0.076
164 | L2S | -0.88 ± 0.091
165 | L2Q | -0.595 ± 0.11
166 | L2C | -0.571 ± 0.077
167 | L2V | -0.369 ± 0.05
